Assay results published in paper PMC9149338 (Cellular and Molecular Immunology, 2022).

B1: STAT1 NLS peptide (peptide)
peptide: HLQLKEQKNA
B2: ADAP NLS2 peptide (peptide)
peptide: KAKTEEKDLKKLKKQEKEEKDFRKKFK
B3: ADAP NLS1 peptide (peptide)
peptide: KEREKKREKEEKKRLELEKKEQKEKEKKEQEIKKK

Molecular target: GST-importin α5 (aa 400–538) (human, UniProt P52294 400-538)
Experiment: SPR

Chain of GST-importin α5 (aa 400–538) (P52294 400-538): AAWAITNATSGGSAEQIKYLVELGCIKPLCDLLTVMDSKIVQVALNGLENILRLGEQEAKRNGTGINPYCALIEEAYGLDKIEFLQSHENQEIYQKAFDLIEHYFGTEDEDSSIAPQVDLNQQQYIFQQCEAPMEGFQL

| Binder | binding result | Kd |
| --- | --- | --- |
| B1 | binds | – |
| B2 | – | 2.38 nM |
| B3 | – | 2.67 nM |
